{"source": "paper PMC11601375", "about": "(bioRxiv, 2024)", "binders": {"B1": {"name": "vacuolar Qb-SNARE Vti1 (natural protein)", "chain": "MSSLLISYESDFKTTLEQAKASLAEAPSQPLSQRNTTLKHVEQQQDELFDLLDQMDVEVNNSIGDASERATYKAKLREWKKTIQSDIKRPLQSLVDSGDRDRLFGDLNASNIDDDQRQQLLSNHAILQKSGDRLKDASRIANETEGIGSQIMMDLRSQRETLENARQTLFQADSYVDKSIKTLKTMTRRLVANKFISYAIIAVLILLILLVLFSKFK"}}, "target": "T1, vacuolar Qa-SNARE Vam3 (yeast, UniProt Q12241 1-283)", "T1 sequence": "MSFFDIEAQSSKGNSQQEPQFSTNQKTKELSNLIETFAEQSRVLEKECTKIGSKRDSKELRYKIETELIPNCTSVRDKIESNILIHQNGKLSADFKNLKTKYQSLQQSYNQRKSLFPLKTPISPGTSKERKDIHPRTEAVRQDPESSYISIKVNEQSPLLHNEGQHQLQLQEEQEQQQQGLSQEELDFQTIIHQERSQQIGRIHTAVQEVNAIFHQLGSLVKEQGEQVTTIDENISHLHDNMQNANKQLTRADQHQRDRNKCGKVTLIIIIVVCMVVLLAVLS", "assay": "co-IP", "data": [{"binder": "B1", "values": [{"measurement": "binding result", "value": "binds"}]}]}
